Test results published in US20100172907A1 (Hoffmann-La Roche, published 2010).
Groups on a side chain read outwards from the residue. No end group written: not given here. NSMP = not defined here

Assays:
[1] = target: T1, BSA-conjugated Aβ heptapeptide FFAEDVC (C-terminal Cys coupled to NSMP-activated BSA); experiment: ELISA
T1 construct: also called Peptide 19-24
T1 peptide: FFAEDVC
Description: (§1) 50 μl of NSMP activated BSA (6.7 mg/ml) was diluted with 50 μl of PBS, 0.1% sodium azide and 10 μl of peptide solution (1 mM in DMSO) was added. As negative control activated BSA was mock-treated without peptide addition. After 4 hrs at room temperature the reaction was stopped by addition of 10 μl of 10 mM Cystein. An aliquot of the conjugate reaction mixture was diluted 1:100 with 0.1M sodium bicarbonate buffer and immediately filled into the wells (100 μl) of ELISA plates (Nunc Immuno-Plate). After standing 16 hrs at 4° C. 100 μl blocking buffer (as above) was added to each well and incubated for another 30 minutes. The plates were washed with 2×300 μl/well TBST (as above) and filled with 100 μl antibody at 10 μg/ml or 2 μg/ml in blocking buffer. The plates were kept 16 hours at 4° C. and washed with 2×300 μl TBST. 100 μl/well HRP-conjugated anti-human Ig H+L (Pierce, dilution 1:1000 with blocking buffer) was added and incubated for 1 hour at ambient temperature. The plates were washed with 3×300 μl/well TBST. Colour development was started by addition of 100 μl tetra-methyl benzidine/hydrogen peroxide reagent.

[2] = target: T2, BSA-conjugated Aβ heptapeptide LVFFAEC (reading uncertain; also: BSA conjugate); experiment: ELISA
T2 construct: also called Peptide 17-22
T2 peptide: LVFFAEC([NSMP-BSA])
Description: as §1

[3] = target: T3, BSA-conjugated Aβ heptapeptide VFFAEDC (C-terminal Cys coupled to NSMP-activated BSA); experiment: ELISA
T3 construct: also called Peptide 18-23
T3 peptide: VFFAEDC
Description: as §1

[4] = target: T4, BSA-conjugated Aβ heptapeptide AEFRHDC (C-terminal Cys coupled to NSMP-activated BSA); experiment: ELISA
T4 construct: also called Peptide 2-7
T4 peptide: AEFRHDC
Description: as §1

Aβ (1-42) peptide = target: T5, Aβ (1-42) peptide (human); experiment: SPR, immobilized fibers;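 note: biacore SPR using in vitro grown Aβ1-40 or Aβ1-42 fibrils immobilized on the chip with Fab analytes, KD from koff/kon fits or equilibrium isotherms based on total Fab concentration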
T5 construct: also called Aβ1-42 fibers; Aβ4
Description: (§2) Biacore2000 and Biacore3000 instruments were used for these measurements. Aβ1-40 and Aβ1-42 fibers were generated in vitro by incubation of synthetic peptides at a concentration of 200 μg/ml in 10 mM Na-acetate buffer (pH 4.0) for three days at 37° C. […] For binders with slow kinetics KD values were calculated by curve fitting of the time-dependent sensor responses, i.e. from the ratio of koff/kₒₙ. Binders with fast kinetics were analyzed by fitting the concentration-dependent sensor responses at equilibrium (adsorption-isotherms). KD values were calculated from the Biacore sensograms based on the total Fab concentration as determined by a protein assay. […] Briefly, time-dependent protein binding to Aβ1-40 fibers immobilized on the Biacore chip was measured during the association phase under mass-limited conditions at different flow rates of the analyte solution.

human Aβ (1-40) peptide [5] = target: T6, human Aβ (1-40) peptide (human); experiment: SPR, immobilized fibers;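 for Kd: biacore SPR using in vitro grown Aβ1-40 or Aβ1-42 fibrils immobilized on the chip with Fab analytes, KD from koff/kon fits or equilibrium isotherms based on total Fab concentration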
T6 construct: also called Aβ1-40 fibers
Description: as §2

human Aβ (1-40) peptide [6] = target: T6, human Aβ (1-40) peptide; experiment: SPR, immobilized fibers; remark: listed apart in the source;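 for Kd: biacore SPR using in vitro grown Aβ1-40 or Aβ1-42 fibrils immobilized on the chip with Fab analytes, KD from koff/kon fits or equilibrium isotherms based on total Fab concentration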
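Throughout, for OD ratio 17-22/BSA: ELISA of antibody at 10 or 2 µg/ml binding plate-coated BSA–peptide conjugates, detected with HRP anti-human Ig and TMB colour, mock-treated BSA without peptide as negative control.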
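Throughout, for OD ratio 19-24/BSA: ELISA of antibody at 10 or 2 µg/ml binding plate-coated BSA–peptide conjugates, detected with HRP anti-human Ig and TMB colour, mock-treated BSA without peptide as negative control.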
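Throughout, for Peptide-ratio 17-22/2-7: ELISA of antibody at 10 or 2 µg/ml binding plate-coated BSA–peptide conjugates, detected with HRP anti-human Ig and TMB colour, mock-treated BSA without peptide as negative control.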
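Throughout, for Peptide-ratio 19-24/2-7: ELISA of antibody at 10 or 2 µg/ml binding plate-coated BSA–peptide conjugates, detected with HRP anti-human Ig and TMB colour, mock-treated BSA without peptide as negative control.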

OD ratio 19-24/BSA [1]: 8
Peptide-ratio 19-24/2-7 [1]: 0.29
OD ratio 17-22/BSA [2]: 9
Peptide-ratio 17-22/2-7 [2]: 0.32
OD ratio 18-23/BSA [3]: 13
Peptide-ratio 18-23/2-7 [3]: 0.46
OD ratio 2-7/BSA [4]: 28
Kd (Aβ (1-42) peptide): 93 nM
Kd (human Aβ (1-40) peptide [5]): 31 nM
fold improvement of affinity over the MS-Roche-7 parental Fab (human Aβ (1-40) peptide [6]): > 35 fold
B1: MS-Roche #7.9 Fab (Fab, V domains shown)
VH: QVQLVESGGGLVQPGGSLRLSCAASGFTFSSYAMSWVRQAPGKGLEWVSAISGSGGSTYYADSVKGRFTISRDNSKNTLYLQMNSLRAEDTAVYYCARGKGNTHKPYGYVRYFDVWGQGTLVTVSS
VL: DIVLTQSPATLSLSPGERATLSCRASQSVSSSYLAWYQQKPGQAPRLLIYGASSRATGVPARFSGSGSGTDFTLTISSLEPEDFATYYCLQIYNMPITFGQGTKVEIKR
notes: VL entry is that of the H-CDR2 derivative 7.9H7
